Patent US20070131547A1

Molecular target: goxDp-Dzip2 (diaphorase derived from Gluconobacter oxydans, Dzip2 association site fused at the C-terminal side) (Gluconobacter oxydans)
Experiment: cell-based or functional assay

In the case of “His-bmaEDH-Dzip1 (glutamic acid dehydrogenase derived from Burkholderia mallei, His tag, Dzip1 assoc (enzyme)”, the maximum electric power (glutamic acid fuel cell) is reported as 106 µW/cm^2 and the shortcircuit current density (glutamic acid fuel cell) is reported as 1230 µA/cm^2.
